Tested on: Escherichia coli TOP10
Assay: shrunken log2 fold change of peptide-encoding DNA abundance (4.5 h post-induction vs induction); higher = less antimicrobial activity (less host growth inhibition)
Settings: time post-induction: 4.5 h; library: site-saturation at positions 5, 18, 19, 20
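Note: peptides expressed intracellularly from a pBAD plasmid library in pooled LB shake-flask culture, induced with 0.3% L-arabinose, DNA abundance read by NGS, three biological replicates, DESeq2 with apeglm shrinkage.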

Row | Sequence | shrunken log2 fold change
1 | RRIRRRPPRLPRPRPRPFLLPRP | 0.0441
2 | RRIRWRPPRLPRPRPRPLTWPRP | 0.302
3 | RRIRSRPPRLPRPRPRPVGDPRP | 0.0704
4 | RRIRHRPPRLPRPRPRPRAEPRP | 0.12
5 | RRIRTRPPRLPRPRPRPPNDPRP | -0.133
6 | RRIRPRPPRLPRPRPRPNYPPRP | -0.392
7 | RRIRRRPPRLPRPRPRPPGEPRP | 0.705
8 | RRIRTRPPRLPRPRPRPLTLPRP | -0.241
9 | RRIRQRPPRLPRPRPRPACRPRP | -0.0513
10 | RRIRFRPPRLPRPRPRPFRMPRP | -0.173
11 | RRIRTRPPRLPRPRPRPITFPRP | -0.108
12 | RRIRGRPPRLPRPRPRPLCNPRP | 0.388
13 | RRIRSRPPRLPRPRPRPMKQPRP | 0.00692
14 | RRIRWRPPRLPRPRPRPEMCPRP | -0.0695
15 | RRIRKRPPRLPRPRPRPDQNPRP | 0.678
16 | RRIRNRPPRLPRPRPRPMVAPRP | 0.0624
17 | RRIRDRPPRLPRPRPRPTFAPRP | 0.454
18 | RRIRNRPPRLPRPRPRPLANPRP | 0.142
19 | RRIRVRPPRLPRPRPRPDHQPRP | -0.00679
20 | RRIRDRPPRLPRPRPRPTKMPRP | 0.269
21 | RRIRNRPPRLPRPRPRPEENPRP | -0.00776
22 | RRIRIRPPRLPRPRPRPNRRPRP | 0.041
23 | RRIRVRPPRLPRPRPRPTCRPRP | 0.147
24 | RRIRPRPPRLPRPRPRPDHNPRP | -0.675
25 | RRIRGRPPRLPRPRPRPGSMPRP | 0.305

Row | Sequence | shrunken log2 fold change
26 | RRIRARPPRLPRPRPRPWDRPRP | 0.0339
27 | RRIRPRPPRLPRPRPRPQKFPRP | -0.178
28 | RRIRIRPPRLPRPRPRPTQKPRP | 0.0769
29 | RRIRERPPRLPRPRPRPRFEPRP | 0.168
30 | RRIRLRPPRLPRPRPRPQLGPRP | -0.0132
31 | RRIRCRPPRLPRPRPRPPPAPRP | 1.46
32 | RRIRIRPPRLPRPRPRPNQGPRP | 0.0325
33 | RRIRRRPPRLPRPRPRPMTDPRP | 0.00399
34 | RRIRRRPPRLPRPRPRPHNGPRP | -0.172
35 | RRIRLRPPRLPRPRPRPRHRPRP | -0.0544
36 | RRIRNRPPRLPRPRPRPFQNPRP | -0.0271
37 | RRIRIRPPRLPRPRPRPIMFPRP | -0.314
38 | RRIRARPPRLPRPRPRPRPRPRP | 1.99
39 | RRIRWRPPRLPRPRPRPTERPRP | -0.124
40 | RRIRIRPPRLPRPRPRPIMVPRP | -0.412
41 | RRIRRRPPRLPRPRPRPKWRPRP | 0.587
42 | RRIRPRPPRLPRPRPRPPTAPRP | 0.189
43 | RRIRFRPPRLPRPRPRPKNPPRP | -0.00149
44 | RRIRCRPPRLPRPRPRPNAVPRP | 0.0238
45 | RRIRLRPPRLPRPRPRPTWQPRP | 0.187
46 | RRIRNRPPRLPRPRPRPREWPRP | -0.00528
47 | RRIRGRPPRLPRPRPRPEHVPRP | 0.0775
48 | RRIRMRPPRLPRPRPRPYMMPRP | -0.111
49 | RRIRDRPPRLPRPRPRPHRCPRP | -0.00141
50 | RRIRTRPPRLPRPRPRPSLMPRP | 0.0356

Row | Sequence | shrunken log2 fold change
51 | RRIRYRPPRLPRPRPRPVCIPRP | -1.24
52 | RRIRMRPPRLPRPRPRPEDTPRP | 1.94
53 | RRIRKRPPRLPRPRPRPDDAPRP | 1.47
54 | RRIRLRPPRLPRPRPRPCGLPRP | 0.142
55 | RRIRMRPPRLPRPRPRPTWFPRP | 0.448
56 | RRIRPRPPRLPRPRPRPRHVPRP | 0.0494
57 | RRIRERPPRLPRPRPRPTIRPRP | -0.622
58 | RRIRHRPPRLPRPRPRPLHEPRP | 0.0601
59 | RRIRYRPPRLPRPRPRPNWNPRP | -1.09
60 | RRIRWRPPRLPRPRPRPIDVPRP | -0.298
61 | RRIRQRPPRLPRPRPRPGEYPRP | -0.0469
62 | RRIRGRPPRLPRPRPRPMFEPRP | 0.688
63 | RRIRTRPPRLPRPRPRPIIYPRP | -0.216
64 | RRIRQRPPRLPRPRPRPRHEPRP | -0.131
65 | RRIRRRPPRLPRPRPRPKMIPRP | 0.103
66 | RRIRPRPPRLPRPRPRPAPVPRP | 0.409
67 | RRIRLRPPRLPRPRPRPYTQPRP | -0.845
68 | RRIRARPPRLPRPRPRPIDSPRP | -0.0515
69 | RRIRFRPPRLPRPRPRPEGHPRP | 0.0933
70 | RRIRHRPPRLPRPRPRPPMFPRP | -0.214
71 | RRIRMRPPRLPRPRPRPERVPRP | 2.69
72 | RRIRHRPPRLPRPRPRPMKSPRP | -0.00231
73 | RRIRYRPPRLPRPRPRPTHWPRP | 0.272
74 | RRIRLRPPRLPRPRPRPECFPRP | 0.226
75 | RRIRHRPPRLPRPRPRPMKIPRP | -0.0248

Row | Sequence | shrunken log2 fold change
76 | RRIRHRPPRLPRPRPRPNAQPRP | -0.00277
77 | RRIRHRPPRLPRPRPRPPFKPRP | 0.332
78 | RRIRIRPPRLPRPRPRPMHWPRP | -0.194
79 | RRIRNRPPRLPRPRPRPAEFPRP | 0.0274
80 | RRIRGRPPRLPRPRPRPQGKPRP | 0.0794
81 | RRIRGRPPRLPRPRPRPLCLPRP | 0.437
82 | RRIRFRPPRLPRPRPRPFWRPRP | 0.366
83 | RRIRNRPPRLPRPRPRPCCMPRP | -0.0549
84 | RRIRGRPPRLPRPRPRPSHEPRP | -0.418
85 | RRIRHRPPRLPRPRPRPRVGPRP | 0.371
86 | RRIRERPPRLPRPRPRPTVMPRP | -0.193
87 | RRIRTRPPRLPRPRPRPMHCPRP | -0.235
88 | RRIRWRPPRLPRPRPRPKMNPRP | 0.0146
89 | RRIRHRPPRLPRPRPRPAILPRP | -0.171
90 | RRIRLRPPRLPRPRPRPKDNPRP | -0.303
91 | RRIRLRPPRLPRPRPRPRQAPRP | -0.00965
92 | RRIRDRPPRLPRPRPRPNMYPRP | -0.229
93 | RRIRCRPPRLPRPRPRPDWWPRP | 0.256
94 | RRIRMRPPRLPRPRPRPCPTPRP | 0.11
95 | RRIRKRPPRLPRPRPRPTAYPRP | 0.185
96 | RRIRRRPPRLPRPRPRPEVEPRP | 0.0165
97 | RRIRRRPPRLPRPRPRPIHTPRP | 0.00898
98 | RRIRPRPPRLPRPRPRPIPDPRP | 0.0469
99 | RRIRYRPPRLPRPRPRPTKLPRP | -0.683
100 | RRIRHRPPRLPRPRPRPQMPPRP | -0.232

Row | Sequence | shrunken log2 fold change
101 | RRIRWRPPRLPRPRPRPSIKPRP | -0.419
102 | RRIRWRPPRLPRPRPRPMWHPRP | -0.139
103 | RRIRQRPPRLPRPRPRPMEVPRP | -0.0855
104 | RRIRYRPPRLPRPRPRPFNCPRP | -0.362
105 | RRIRWRPPRLPRPRPRPFMRPRP | 0.276
106 | RRIRPRPPRLPRPRPRPACKPRP | 0.0686
107 | RRIRARPPRLPRPRPRPLDWPRP | 1
108 | RRIRKRPPRLPRPRPRPVGQPRP | 0.0743
109 | RRIRGRPPRLPRPRPRPNQTPRP | -0.0961
110 | RRIRKRPPRLPRPRPRPIYVPRP | 0.0461
111 | RRIRFRPPRLPRPRPRPMFWPRP | -0.0645
112 | RRIRFRPPRLPRPRPRPMRHPRP | 0.0162
113 | RRIRKRPPRLPRPRPRPLWEPRP | 0.163
114 | RRIRYRPPRLPRPRPRPILFPRP | -0.945
115 | RRIRKRPPRLPRPRPRPVEFPRP | 0.192
116 | RRIRQRPPRLPRPRPRPYRVPRP | -0.00926
117 | RRIRQRPPRLPRPRPRPSQAPRP | 0.103
118 | RRIRPRPPRLPRPRPRPDGFPRP | -0.0011
119 | RRIRSRPPRLPRPRPRPYHYPRP | -0.527
120 | RRIRHRPPRLPRPRPRPCQPPRP | -0.0284
121 | RRIRKRPPRLPRPRPRPHAMPRP | -0.0147
122 | RRIRLRPPRLPRPRPRPRPTPRP | 0.484
123 | RRIRCRPPRLPRPRPRPAKVPRP | -0.243
124 | RRIRYRPPRLPRPRPRPVMSPRP | -0.233
125 | RRIRVRPPRLPRPRPRPIPGPRP | -0.0572
